The values below come from article PMC10424212.

The conditions of this data set: ubiquitination at K57.

Turning to “ALKBH5: K57R (purified FLAG-tagged protein, in vitro demethylation assay)”, the enzymatic_activity result is recorded as “no change”.
Take ALKBH5: K57R: the degradation_or_half_life result was “increases”.
